Target: T1, Recombinant human valosin-containing protein (VCP) (human, UniProt P55072 1-806)
T1 construct: valosin-containing protein (VCP), human, recombinant; Commercial protein; The supplier is printed as 'Abnoba', probably Abnova; No catalogue number or tag is printed; also called recombinant VCP; source: bought: Abnoba, Taipei, Taiwan
Experiment: co-IP; recombinant mouse PKM2 (100 pmol) and recombinant human VCP (10 pmol) coincubated 1 h at 25 °C; precipitated with rabbit anti-PKM2 antibody or normal mouse IgG cross-linked to Dynabeads Protein G, 2 h at 25 °C; Western blot for PKM2 and VCP
Conditions: both partners purified

T1 sequence (P55072 whole entry): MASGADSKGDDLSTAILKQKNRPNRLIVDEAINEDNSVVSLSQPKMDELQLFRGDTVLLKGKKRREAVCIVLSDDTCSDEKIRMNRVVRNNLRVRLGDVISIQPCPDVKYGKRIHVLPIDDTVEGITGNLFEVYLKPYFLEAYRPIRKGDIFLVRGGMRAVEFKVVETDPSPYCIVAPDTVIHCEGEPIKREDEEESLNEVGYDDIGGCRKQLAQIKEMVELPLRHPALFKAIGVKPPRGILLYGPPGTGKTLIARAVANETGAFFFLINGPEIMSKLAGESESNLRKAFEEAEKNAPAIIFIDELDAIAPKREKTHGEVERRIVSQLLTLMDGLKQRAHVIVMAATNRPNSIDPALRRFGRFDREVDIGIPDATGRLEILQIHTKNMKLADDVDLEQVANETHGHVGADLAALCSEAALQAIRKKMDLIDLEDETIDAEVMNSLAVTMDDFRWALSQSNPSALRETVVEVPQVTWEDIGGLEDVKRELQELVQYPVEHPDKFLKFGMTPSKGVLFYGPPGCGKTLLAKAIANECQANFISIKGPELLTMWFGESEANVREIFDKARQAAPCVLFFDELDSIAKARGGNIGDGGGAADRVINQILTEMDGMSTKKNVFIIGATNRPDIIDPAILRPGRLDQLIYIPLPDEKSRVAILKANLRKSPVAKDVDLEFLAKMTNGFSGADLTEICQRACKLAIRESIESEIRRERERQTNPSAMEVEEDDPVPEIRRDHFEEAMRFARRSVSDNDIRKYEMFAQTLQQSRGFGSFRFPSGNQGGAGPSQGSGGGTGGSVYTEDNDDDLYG

B1: Recombinant mouse pyruvate kinase isoform M2 (PKM2) (enzyme)
chain: not shown
notes: pyruvate kinase isoform M2 (PKM2), mouse, recombinant; Commercial protein; No catalogue number, expression host or tag is printed; also called recombinant PKM2; extracellular PKM2; source: bought: Abcam
B1: binds.

Source: publication PMC7656253, “Recovery of motor function of chronic spinal cord injury by extracellular pyruvate kinase isoform M2 and the underlying mechanism” (Scientific Reports, 2020)
